Measurements: patent publication US20110014287A1 (ALLERGAN, published 2011)

Assays:
[1] = biological target: T1, silk fibroin, substantially sericin-depleted, from Bombyx mori silk (Bombyx mori, UniProt P05790 22-5263; P21828 17-262, limits assumed); experiment: HPLC of 23RGD extracted from silk precipitates, across formulations
T1 construct: also called silk fibroin hydrogel; silk gel
Description: (§1) The amount of 23RGD bound to silk precipitates was quantified by analyzing lyophilized samples. The 23RGD was removed by incubating the samples for 4 hours in a dissolving buffer, then centrifuging on an Eppendorf 5415C (Eppendorf North America Inc., Westbury, N.Y.) at 16,000 g (RCF) for 30 minutes and the supernatant collected. This supernatant was then centrifuged in identical fashion and the final supernatant collected for HPLC analysis using a PerkinElmer Series 200 (PerkinElmer, Waltham, Mass.). The 23RGD peak areas from each curve were compared against a standard curve. 1-Way ANOVA was used to test for significant differences caused by changing silk concentration, 23RGD concentration, and accelerant volume. A Student's t-test was used to test the significance of differences resulting from altered ethanol concentrations.

[2] = biological target: T1, silk fibroin, substantially …; experiment: HPLC of 23RGD extracted from rinsed silk hydrogel, peak area against a 23RGD standard curve
Source text: 23RGD-infused gels were studied to quantify the amount of 23RGD bound to the silk-hydrogel device as well as the quantity of free 23RGD which might be rinsed free of the device under relevant conditions. Briefly, samples of 23RGD-infused gel were cast and rinsed according to the methods above, with samples of rinse buffer being collected from each rinse for subsequent analysis by HPLC. Additionally, subsequent to the last rinse, the gel samples were mechanically pulverized by means of a stainless steel stirring rod and the adsorbed 23RGD removed by incubation for 4 hours in a dissolving buffer. This mixture of gel and solvent was then centrifuged on an Eppendorf 5415C at 16,000 g RCF for 30 minutes. The supernatant was collected and centrifuged another 30 minutes at 16,000 g RCF after which time the supernatant was collected in a sample vial for HPLC analysis. Samples of rinse buffer from the first and last rinse were centrifuged in the same fashion after being diluted with the same solvent the gel was extracted with in a volumetric ratio of 1 part rinse buffer to 4 parts solvent. To ensure 23RGD-hydrogel device rinse-exposed surface area was not a limiting factor, the same rinse and extraction process was performed upon devices pulverized after gelation and before rinsing.

[3] = biological target: T1, silk fibroin, substantially …; experiment: HPLC of 23RGD extracted from lyophilized silk precipitate, against standard curve; RHI formulation
Description: as §1

[4] = biological target: T1, silk fibroin, substantially …; experiment: HPLC of 23RGD extracted from lyophilized silk precipitate, against standard curve; AVHI formulation
Description: as §1

[5] = biological target: T1, silk fibroin, substantially …; experiment: HPLC of 23RGD extracted from lyophilized silk precipitate, against standard curve; AVLO formulation
Description: as §1

[6] = biological target: T1, silk fibroin, substantially …; experiment: HPLC of 23RGD extracted from lyophilized silk precipitate, against standard curve; BASE formulation
Description: as §1

[7] = biological target: T1, silk fibroin, substantially …; experiment: HPLC of 23RGD extracted from lyophilized silk precipitate, against standard curve; SCLO formulation
Description: as §1

[8] = biological target: T1, silk fibroin, substantially …; experiment: HPLC of 23RGD extracted from lyophilized silk precipitate, against standard curve; SCVLO formulation
Description: as §1

[9] = biological target: T1, silk fibroin, substantially …; experiment: HPLC of 23RGD extracted from lyophilized silk precipitate, against standard curve; formulation labelled RLO in this sentence
Description: as §1

[10] = biological target: T1, silk fibroin, substantially …; experiment: HPLC of 23RGD extracted from lyophilized silk precipitate, against standard curve; formulation labelled RMED in this sentence
Description: as §1

GRGDIPASSKGGGGSRLLLLLLR (not fully specified; C-terminal -NH2 as printed (HOOC-GRGDIPASSKG4SRL6R-NH2), also called amphiphilic peptide) [23RGD peptide (HOOC-GRGDIPASSKG4SRL6R-NH2)]
apparent saturation 23RGD:silk ratio [1]: ~10 23RGD:silk ratio
23RGD:silk ratio bound to the gel [2]: 3.35 23RGD:silk ratio
23RGD:silk ratio bound to the precipitate [3]: 10.7 23RGD:silk ratio
23RGD:silk ratio bound to the precipitate [4]: 10.5 23RGD:silk ratio
23RGD:silk ratio bound to the precipitate [5]: 5.2 23RGD:silk ratio
23RGD:silk ratio bound to the precipitate [6]: 8.7 23RGD:silk ratio
23RGD:silk ratio bound to the precipitate [7]: 9.9 23RGD:silk ratio
23RGD:silk ratio bound to the precipitate [8]: 11 23RGD:silk ratio
23RGD:silk ratio bound to the precipitate [9]: 1.1 23RGD:silk ratio
23RGD:silk ratio bound to the precipitate [10]: 6.95 23RGD:silk ratio
